How the values were obtained:
MALT1-C464A (bio-tagged) = molecular target: T1, MALT1-C464A (bio-tagged) (human, UniProt Q9UDY8 1-824); assay: co-IP (bio-IP, immunoblot)
T1 construct: also called C464A mutant; C464 mutant
T1 sequence (looked up): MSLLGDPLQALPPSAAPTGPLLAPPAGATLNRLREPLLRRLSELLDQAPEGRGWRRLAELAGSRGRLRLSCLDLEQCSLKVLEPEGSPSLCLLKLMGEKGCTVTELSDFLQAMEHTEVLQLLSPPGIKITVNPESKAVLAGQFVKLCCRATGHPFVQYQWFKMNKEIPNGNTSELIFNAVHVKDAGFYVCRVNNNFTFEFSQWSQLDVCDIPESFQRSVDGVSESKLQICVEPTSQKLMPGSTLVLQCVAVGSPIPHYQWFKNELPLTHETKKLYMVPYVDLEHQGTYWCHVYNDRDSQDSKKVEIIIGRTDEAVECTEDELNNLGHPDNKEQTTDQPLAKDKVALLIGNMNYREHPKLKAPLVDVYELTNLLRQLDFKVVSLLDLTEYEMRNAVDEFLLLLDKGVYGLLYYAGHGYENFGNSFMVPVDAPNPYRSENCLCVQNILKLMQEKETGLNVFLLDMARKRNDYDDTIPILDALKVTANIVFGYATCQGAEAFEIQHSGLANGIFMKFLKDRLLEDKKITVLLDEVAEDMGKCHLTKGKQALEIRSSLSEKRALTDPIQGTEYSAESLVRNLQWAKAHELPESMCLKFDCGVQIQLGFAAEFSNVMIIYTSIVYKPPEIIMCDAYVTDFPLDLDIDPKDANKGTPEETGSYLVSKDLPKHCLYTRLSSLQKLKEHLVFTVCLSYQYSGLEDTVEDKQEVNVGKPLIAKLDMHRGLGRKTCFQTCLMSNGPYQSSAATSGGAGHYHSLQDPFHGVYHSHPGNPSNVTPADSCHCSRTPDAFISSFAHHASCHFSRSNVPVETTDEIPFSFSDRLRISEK

MALT1-R149A (bio-tagged) = molecular target: T2, MALT1-R149A (bio-tagged) (human, UniProt Q9UDY8 1-824, Avi-tag biotinylated in vivo by co-expressed BirA); assay: co-IP (bio-IP, immunoblot)
T2 construct: also called R149A mutant
T2 sequence (looked up): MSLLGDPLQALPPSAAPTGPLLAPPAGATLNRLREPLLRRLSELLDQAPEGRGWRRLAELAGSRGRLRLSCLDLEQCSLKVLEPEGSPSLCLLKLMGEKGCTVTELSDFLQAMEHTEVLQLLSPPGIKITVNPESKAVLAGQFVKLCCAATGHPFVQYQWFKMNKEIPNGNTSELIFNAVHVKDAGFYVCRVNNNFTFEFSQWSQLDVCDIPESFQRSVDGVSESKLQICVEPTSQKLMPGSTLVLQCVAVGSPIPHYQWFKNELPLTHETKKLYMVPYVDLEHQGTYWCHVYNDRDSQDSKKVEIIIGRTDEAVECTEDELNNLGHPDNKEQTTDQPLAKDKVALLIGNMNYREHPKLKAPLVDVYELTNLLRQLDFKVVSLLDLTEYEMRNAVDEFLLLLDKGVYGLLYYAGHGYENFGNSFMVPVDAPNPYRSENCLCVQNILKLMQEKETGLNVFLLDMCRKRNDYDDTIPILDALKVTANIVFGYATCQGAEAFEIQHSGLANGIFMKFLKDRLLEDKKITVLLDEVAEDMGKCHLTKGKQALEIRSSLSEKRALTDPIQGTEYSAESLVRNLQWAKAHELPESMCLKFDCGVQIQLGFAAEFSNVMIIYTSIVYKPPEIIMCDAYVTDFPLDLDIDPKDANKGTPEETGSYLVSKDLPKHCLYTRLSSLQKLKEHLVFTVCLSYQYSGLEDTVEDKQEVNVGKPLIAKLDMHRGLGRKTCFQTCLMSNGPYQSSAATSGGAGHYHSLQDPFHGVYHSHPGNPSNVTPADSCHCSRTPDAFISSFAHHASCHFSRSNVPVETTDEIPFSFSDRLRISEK

- binding result (MALT1-C464A (bio-tagged)): binds
- binding result (MALT1-R149A (bio-tagged)): binds
B1: BCL10 (other, UniProt O95999 1-233, looked up)
chain: MEPTAPSLTEEDLTEVKKDALENLRVYLCEKIIAERHFDHLRAKKILSREDTEEISCRTSSRKRAGKLLDYLQENPKGLDTLVESIRREKTQNFLIQKITDEVLKLRNIKLEHLKGLKCSSCEPFPDGATNNLSRSNSDESNFSEKLRASTVMYHPEGESSTTPFFSTNSSLNLPVLEVGRTENTIFSSTTLPRPGDPGAPPLPPDLQLEEEGTCANSSEMFLPLRSRTVSRQ
notes: Co-precipitated from lysates of human cell lines

Reference: US8309523 (VIB VZW, dated 2012)
